Assay results reported in US20240150797A1, “BIOCATALYTICAL PRODUCTION OF DIHYDROCHALCONES” (Symrise AG, priority 2021, published 2024).

Legend:
Format in all cases: biochemical
Settings in all cases: purified CHI in 50 mM PBS, 100 μM substrate, 25° C.
[1] = Specific activity of purified CHI, absorbance decrease at 384 nm, 4-O-methyl butein
Procedure: (§1) E. coli BL21 (DE3) cells containing one of the pET28b plasmids from Table 2 or Table 3 were used to inoculate 1 L LB medium at OD of 0.1. Cells were incubated at 37° C., 250 rpm until the OD reached 0.4-0.6 and induced by supplementing with 0.1 mM IPTG. After protein expression at 28° C., 250 rpm for 16 h, the cells were harvested by centrifugation at 4,000×g for 15 min. The harvested cells were lysed with 0.5 mg/mL lysozyme (Sigma-Aldrich), 0.4 U/mL Benzonase (Sigma-Aldrich) and BugBuster (Merck) at room temperature for 0.5 h to obtain a crude cell extract. The crude extract was centrifuged at 10,000×g for 30 min to remove the pellet. Recombinant proteins were purified by Ni-affinity chromatography (GE Healthcare). The supernatant of the crude extract was loaded on the column with 20 mM imidazole. The column was washed by 5 column volumes of 30 mM imidazole with 20 mM PBS (pH 7.4) and 500 mM NaCl. The target proteins were eluted by 150 mM imidazole with 20 mM PBS (pH 7.4) and 500 mM NaCl. Buffer exchange with 50 mM PBS (pH 7.5) was achieved by ultrafiltration with Amicon Ultra-15 (Merck). The activity of the respective purified enzyme was determined by measuring the absorbance decrease at 384 nm in the reaction mix (CHI in 50 mM PBS with 100 μM of either naringenin chalcone, hesperetin chalcone, eriodictyol chalcone, homoeriodictyol chalcone or 4-O-methyl butein at 25° C.).

[2] = Specific activity of purified CHI, absorbance decrease at 384 nm, homoeriodictyol chalcone
Procedure: as §1

[3] = Specific activity of purified CHI, absorbance decrease at 384 nm, naringenin chalcone
Procedure: as §1

[4] = Specific activity of purified CHI, absorbance decrease at 384 nm, hesperetin chalcone
Procedure: as §1

[5] = Specific activity of purified CHI, absorbance decrease at 384 nm, eriodictyol chalcone
Procedure: as §1

Molecule | Specific activity, 4-O-methyl butein [1] | Specific activity, Homoeriodctiol chalcone [2] | Specific activity, Naringenin chalcone [3] | Specific activity, Hesperetin chalcone [4] | Specific activity, Eriodictyol chalcone [5]
CHIera Mut1: Chalcone isomerase variant 1 from Eubacterium ramulus, genetically engineered (protein, listed as Eubacterium ramulus) MADFKFEPMRSLIYVDCVSEDYRPKLQRWIYKVHIPDSISKFEPYVTKYAFYPSFPIPPQGDRFGYARMQLTEHHWLVSELDPRLEINAIAETFPMDVLVWQGQIPAAAHTDAQIDSDGDAGRAAGKSNNAEGNPFIFAFLPMWWEKDLKGKGRTIEDGANYRFNMTIGFPEGVDKAEGEKWLFEKVVPILQAAPECTRVLASAVKKDINGCVMDWVLEIWFENQSGWYKVMVDDMKALEKPSWAQQDAFPFLKPYHNVCSAAVADYTPSNNLANYRGYITMR | 0.4 | 23.7 | 32.6 | 93.2 | 59.5
CHIera Mut13: Chalcone isomerase variant 13 from Eubacterium ramulus, genetically engineered (protein, listed as Eubacterium ramulus) MADFKFEPMRSLIYVDCVSEDYRPKLQRWIYKVHIPDSISKFEPYVTKYAFYPSFPIPPQGDRFGYARMQLTEHHWLVSPLDPRLEINAIAETFPMDVLVWQGQIPAAAHTDAQIDSDGDADDAARKSNNAEGNPFIFAFLPMWWEKDLKGKGRTIEDGANYRFNMTIGFPEGVDKAEGEKWLFEKVVPILQAAPECTRVLASAVKKDINGCVMDWVLEIWFENQSGWYKVMVDDMKALEKPSWAQQDAFPFLKPYHNVCSAAVADYTPSNNLANYRGYITMR | 1.4 | 33.6 | 28.0 | 107.1 | 28.0
CHIera Mut5: Chalcone isomerase variant 5 from Eubacterium ramulus, genetically engineered (protein, listed as Eubacterium ramulus) MADFKFEPMRSLIYVDCVSEDYRPKLQRWIYKVHIPDSISKFEPYVTKYAFYPSFPIPPQGDRFGYARMQLTEHHWLVSPLDPRLEINAIAETFPMDVLVWQGQIPAAAHTDAQIDSDGDAGRAAKKSNNAEGNPFIFAFLPMWWEKDLKGKGRTIEDGANYRFNMTIGFPEGVDKAEGEKWLFEKVVPILQAAPECTRVLASAVKKDINGCVMDWVLEIWFENQSGWYKVMVDDMKALEKPSWAQQDAFPFLKPYHNVCSAAVADYTPSNNLANYRGYITMR | 0.1 | 8.8 | 8.0 | 4.5 | 13.5
CHIera Mut3: Chalcone isomerase variant 3 from Eubacterium ramulus, genetically engineered (protein, listed as Eubacterium ramulus) MADFKFEPMRSLIYVDCVSEDYRPKLQRWIYKVHIPDSISNFEPYVTKYAFYPSFPIPPQGDRFGYARMQLTEHHWLVSELDPRLEIKAIAETFPMDVLVWQGQIPAAAHTDAQIDSDGDAGRAAGKSNNAEGNPFIFAFLPMWWEKDLKGKGRTIEDGANYRFNMTIGFPEGVDKAEGEKWLFEKVVPILQAAPECTRVLASAVKKDINGCVMDWVLEIWFENQSGWYKVMVDDMKALEKPSWAQQDAFPFLKPYHNVCSAAVADYTPSNNLANYRGYITMR | 0.3 | 13.0 | 16.7 | 55.1 | 39.2
CHIera Mut8: Chalcone isomerase variant 8 from Eubacterium ramulus, genetically engineered (protein, listed as Eubacterium ramulus) MADFKFEPMRSLIYVDCVSEDYRPKLQRWIYKVHIPDSISKFEPYVTKYAFYPSFPIPPQGDRFGYARMQLTEHHWLVSPLDPRLEINAIAETFPMDVLVWQGQIPAAAHTDAQIDSDGDAGEAARKSNNAEGNPFIFAFLPMWWEKDLKGKGRTIEDGANYRFNMTIGFPEGVDKAEGEKWLFEKVVPILQAAPECTRVLASAVKKDINGCVMDWVLEIWFENQSGWYKVMVDDMKALEKPSWAQQDAFPFLKPYHNVCSAAVADYTPSNNLANYRGYITMR | 0.5 | 21.2 | 25.6 | 83.9 | 49.0
CHIera Mut6: Chalcone isomerase variant 6 from Eubacterium ramulus, genetically engineered (protein, listed as Eubacterium ramulus) MADFKFEPMRSLIYVDCVSEDYRPKLQRWIYKVHIPDSISNFEPYVTKYAFYPSFPIPPQGDRFGYARMQLTEHHWLVSELDPRLEIRAIAETFPMDVLVWQGQIPAAAHTDAQIDSDGDAGDAARKSNNAEGNPFIFAFLPMWWEKDLKGKGRTIEDGANYRFNMTIGFPEGVDKAEGEKWLFEKVVPILQAAPECTRVLASAVKKDINGCVMDWVLEIWFENQSGWYKVMVDDMKALEKPSWAQQDAFPFLKPYHNVCSAAVADYTPSNNLANYRGYITMR | 0.4 | 20.0 | 17.1 | 30.3 | 52.4
